# Source: patent publication US20200231974A1 (published 2020)
# T1: HCMV pp65 peptide on HLA-B*07:02 (human)
# T1 peptide: TPRVTGGGAM
# Biological target: T1, HCMV pp65 peptide on HLA-B*07:02
# Assay: multimer staining
row,Binder,binding result
1,"HBD4.1.S9-5.E3 (SEQ0717 and SEQ0718) (TCR, V domains shown) Valpha: SQQGEEDPQALSIQEGENATMNCSYKTSINNLQWYRQNSGRGLVHLILIRSNEREKHSGRLRVTLDTSKKSSSLLITASRAADTASYFCATELRMDSSYKLIFGSGTRLLVRP Vbeta: DTGVSQNPRHKITKRGQNVTFRCDPISEHNRLYWYRQTLGQGPEFLTYFQNEAQLEKSRLLSDRFSAERPKGSFSTLEIQRTEQGDSAMYLCASSLREGRLPETQYFGPGTRLLVL",recognises
2,"HBD4.1.S9-7.C5 (SEQ0715 and SEQ0716) (TCR, V domains shown) Valpha: AQSVAQPEDQVNVAEGNPLTVKCTYSVSGNPYLFWYVQYPNRGLQFLLKYITGDNLVKGSYGFEAEFNKSQTSFHLKKPSALVSDSALYFCAVRSRMDSSYKLIFGSGTRLLVRP Vbeta: DTGVSQNPRHKITKRGQNVTFRCDPISEHNRLYWYRQTLGQGPEFLTYFQNEAQLEKSRLLSDRFSAERPKGSFSTLEIQRTEQGDSAMYLCASSPPDAAYNEQFFGPGTRLTVL",recognises
3,"HBD4.1.S9-2.A6 (SEQ0709 and SEQ0710) (TCR, V domains shown) Valpha: AQKITQTQPGMFVQEKEAVTLDCTYDTSDQSYGLFWYKQPSSGEMIFLIYQGSYDEQNATEGRYSLNFQKARKSANLVISASQLGDSAMYFCAMREGMDSSYKLIFGSGTRLLVRP Vbeta: DTGVSQNPRHKITKRGQNVTFRCDPISEHNRLYWYRQTLGQGPEFLTYFQNEAQLEKSRLLSDRFSAERPKGSFSTLEIQRTEQGDSAMYLCASSLHDRGARTEAFFGQGTRLTVV",recognises
4,"HBD4.1.S9-1.D5 (SEQ0707 and SEQ0708) (TCR, V domains shown) Valpha: DAKTTQPPSMDCAEGRAANLPCNHSTISGNEYVYWYRQIHSQGPQYIIHGLKNNETNEMASLIITEDRKSSTLILPHATLRDTAVYYCIVRDRYNTGNQFYFGTGTSLTVIP Vbeta: EAQVTQNPRYLITVTGKKLTVTCSQNMNHEYMSWYRQDPGLGLRQIYYSMNVEVTDKGDVPEGYKVSRKEKRNFPLILESPSPNQTSLYFCASSLGPSSYEQYFGPGTRLTVT",recognises
5,"HBD4.1.S9-7.E5 (SEQ0713 and SEQ0714) (TCR, V domains shown) Valpha: AQKITQTQPGMFVQEKEAVTLDCTYDTSDQSYGLFWYKQPSSGEMIFLIYQGSYDEQNATEGRYSLNFQKARKSANLVISASQLGDSAMYFCAMRPYTGGFKTIFGAGTRLFVKA Vbeta: EAQVTQNPRYLITVTGKKLTVTCSQNMNHEYMSWYRQDPGLGLRQIYYSMNVEVTDKGDVPEGYKVSRKEKRNFPLILESPSPNQTSLYFCASSTSPSTARYGYTFGSGTRLTVV",recognises
